The record followed here is publication PMC9452295 (2022).

In experiment [1] the target is T1, MRAS(1–178)–Avi, biotinylated, wild type (human, UniProt O14807 1-178, biotin on the Avi tag).
T1 chain: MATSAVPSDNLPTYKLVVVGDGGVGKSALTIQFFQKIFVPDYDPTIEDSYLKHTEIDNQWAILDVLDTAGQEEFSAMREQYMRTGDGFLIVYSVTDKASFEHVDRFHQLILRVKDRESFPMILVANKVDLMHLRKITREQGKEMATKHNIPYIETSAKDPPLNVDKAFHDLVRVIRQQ
The experiment in a line: SPR; +PP1Cα. (In general: Surface plasmon resonance follows binding to a sensor surface in real time, without labels.)

Experiment [2] concerns the target T1, MRAS(1–178)–Avi, biotinylated, wild type. The experiment in a line: SPR; +PP1Cα(P50R).

B1: SHOC2 (residues 80–582, LRR domain), wild type (domain or fragment)
chain: GTRKKSSNAEVIKELNKCREENSMRLDLSKRSIHILPSSIKELTQLTELYLYSNKLQSLPAEVGCLVNLMTLALSENSLTSLPDSLDNLKKLRMLDLRHNKLREIPSVVYRLDSLTTLYLRFNRITTVEKDIKNLSKLSMLSIRENKIKQLPAEIGELCNLITLDVAHNQLEHLPKEIGNCTQITNLDLQHNELLDLPDTIGNLSSLSRLGLRYNRLSAIPRSLAKCSALEELNLENNNISTLPESLLSSLVKLNSLTLARNCFQLYPVGGPSQFSTIYSLNMEHNRINKIPFGIFSRAKVLSKLNMKDNQLTSLPLDFGTWTSMVELNLATNQLTKIPEDVSGLVSLEVLILSNNLLKKLPHGLGNLRKLRELDLEENKLESLPNEIAYLKDLQKLVLTNNQLTTLPRGIGHLTNLTHLGLGENLLTHLPEEIGTLENLEELYLNDNPNLHSLPFELALCSKLSIMSIENCPLSHLPPQIVAGGPSFIIQFLKMQGPYRAMV
With B1, the Kd (in general, the constant that tells how readily two partners part at equilibrium) in experiment [1] came out at 86.3 nM; in experiment [2], 34.8 nM.
